Drawing on the supplement of paper PMC10724198, this text covers protein stability index for 15 sequences.

± gives the standard deviation of the averaged measurements.

The subject of data set [1] is Saccharomyces cerevisiae. Description: protein stability index of tFT-peptide fusion (C-terminal peptide) (PSI (0-1 scale)); higher = more stable (slower turnover). The protocol:
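MPS profiling in S. cerevisiae of the tFT-X12 degron library: putative degron peptides plus stable controls, 12 aa, fused to the C-terminus of a sfGFP-mCherry timer. Cells are FACS-sorted into 8 mCherry/sfGFP bins and deep-sequenced. PSI runs from 0 (unstable) to 1 (stable). Backgrounds are wild type, das1Δ and doa10Δ at 30 °C, and wild type, das1Δ, cdc34-1 and cdc53-1 at 37 °C; 2-3 technical replicates each.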

Data set [2] has as its system Saccharomyces cerevisiae. Described as above. To be noted: genetic background: wild type; temperature: 30 C.
Where [3] appears, read: genetic background: cdc34-1, temperature: 37 C.
Setting [4] is: genetic background: cdc53-1, temperature: 37 C.
Setting [5] is: genetic background: das1 deletion, temperature: 30 C.
Where [6] appears, read: genetic background: das1 deletion, temperature: 37 C.
[7] abbreviates: genetic background: doa10 deletion, temperature: 30 C.
Where [8] appears, read: genetic background: wild type, temperature: 30 C.
Setting [9] is: genetic background: wild type, temperature: 37 C.
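Further: PSI is a weighted mean of sequencing reads over stability bins, variants kept only with over 10 reads, mCherry proximal and sfGFP distal, peptide attached via GGGS linker.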

Consider SYVLLQSYVSLV, for which the protein stability index with Saccharomyces cerevisiae [1] (setting [3]) turned out to be 0.566 ± 0.017; in the data set with Saccharomyces cerevisiae [1] (setting [4]) it was 0.623 ± 0.016; in the data set with Saccharomyces cerevisiae [1] (setting [5]), 0.474 ± 0.0091; in the data set with Saccharomyces cerevisiae [1] (setting [6]), 0.643 ± 0.016; in the data set on Saccharomyces cerevisiae [1] (setting [7]), 0.318 ± 0.016; with Saccharomyces cerevisiae [1] (setting [8]), 0.352 ± 0.029. For the same sequence, the protein stability index in the data set with Saccharomyces cerevisiae [1] (setting [9]) was determined as 0.613 ± 0.083; with Saccharomyces cerevisiae [2] it was 0.451 ± 0.021.

Turning to TCVTLRYRLTFE, the protein stability index was determined as 0.638 ± 0.11 in the data set with Saccharomyces cerevisiae [1] (setting [3]); 0.666 ± 0.027 in the data set on Saccharomyces cerevisiae [1] (setting [4]); 0.564 ± 0.022 in the data set on Saccharomyces cerevisiae [1] (setting [5]); 0.667 ± 0.043 in the data set with Saccharomyces cerevisiae [1] (setting [6]); 0.585 ± 0.04 with Saccharomyces cerevisiae [1] (setting [7]); 0.522 ± 0.025 in the data set on Saccharomyces cerevisiae [1] (setting [8]). The protein stability index was 0.621 ± 0.02 with Saccharomyces cerevisiae [1] (setting [9]) and 0.508 ± 0.11 in the data set on Saccharomyces cerevisiae [2].

Take TFLFPLPFLFFI: the protein stability index in the data set with Saccharomyces cerevisiae [1] (setting [3]) was found to be 0.0467 ± 0.0054; in the data set on Saccharomyces cerevisiae [1] (setting [4]) it was 0.0387 ± 0.0025; in the data set with Saccharomyces cerevisiae [1] (setting [5]), 0.102 ± 0.019; in the data set on Saccharomyces cerevisiae [1] (setting [6]), 0.119 ± 0.03; in the data set on Saccharomyces cerevisiae [1] (setting [7]), 0.29 ± 0.014; in the data set with Saccharomyces cerevisiae [1] (setting [8]) it was 0.0685 ± 0.02. Moreover, the figures for the protein stability index with Saccharomyces cerevisiae [1] (setting [9]) and in the data set with Saccharomyces cerevisiae [2] were 0.101 ± 0.0099 and 0.0963 ± 0.016, respectively.

For the sequence TFRPWPLHILAL, the protein stability index was determined as 0.195 ± 0.0033 in the data set with Saccharomyces cerevisiae [1] (setting [3]); 0.219 ± 0.029 in the data set with Saccharomyces cerevisiae [1] (setting [4]); 0.216 ± 0.038 in the data set with Saccharomyces cerevisiae [1] (setting [5]); 0.325 ± 0.0089 in the data set with Saccharomyces cerevisiae [1] (setting [6]); 0.15 ± 0.0036 in the data set with Saccharomyces cerevisiae [1] (setting [7]); 0.166 ± 0.026 with Saccharomyces cerevisiae [1] (setting [8]). Further, the protein stability index with Saccharomyces cerevisiae [1] (setting [9]) was 0.201 ± 0.019; in the data set with Saccharomyces cerevisiae [2], 0.257 ± 0.029.

For the sequence THRAVGIGLRCC, the protein stability index was determined as 0.558 ± 0.042 in the data set with Saccharomyces cerevisiae [1] (setting [3]); 0.637 ± 0.02 in the data set with Saccharomyces cerevisiae [1] (setting [4]); 0.496 ± 0.029 with Saccharomyces cerevisiae [1] (setting [5]); 0.645 ± 0.0067 with Saccharomyces cerevisiae [1] (setting [6]); 0.165 ± 0.01 in the data set with Saccharomyces cerevisiae [1] (setting [7]); 0.186 ± 0.022 in the data set with Saccharomyces cerevisiae [1] (setting [8]). The protein stability index with Saccharomyces cerevisiae [1] (setting [9]) was found to be 0.4005 ± 0.0016; with Saccharomyces cerevisiae [2] it was 0.358 ± 0.025.

Regarding TIRKCIIKWIKI, the protein stability index in the data set with Saccharomyces cerevisiae [1] (setting [3]) came out at 0.591 ± 0.032; in the data set on Saccharomyces cerevisiae [1] (setting [4]) it was 0.581 ± 0.031; with Saccharomyces cerevisiae [1] (setting [5]), 0.475 ± 0.021; with Saccharomyces cerevisiae [1] (setting [6]), 0.596 ± 0.029; with Saccharomyces cerevisiae [1] (setting [7]) it was 0.174 ± 0.0094; with Saccharomyces cerevisiae [1] (setting [8]) it was 0.189 ± 0.036. The protein stability index with Saccharomyces cerevisiae [1] (setting [9]) is 0.398 ± 0.024; with Saccharomyces cerevisiae [2], 0.368 ± 0.016.

Regarding TKDFVIKKTKIS, the protein stability index is 0.537 ± 0.017 in the data set on Saccharomyces cerevisiae [1] (setting [3]); 0.7393 ± 0.0047 in the data set on Saccharomyces cerevisiae [1] (setting [4]); 0.641 ± 0.019 with Saccharomyces cerevisiae [1] (setting [5]); 0.737 ± 0.022 with Saccharomyces cerevisiae [1] (setting [6]); 0.135 ± 0.03 in the data set on Saccharomyces cerevisiae [1] (setting [7]); 0.159 ± 0.03 in the data set on Saccharomyces cerevisiae [1] (setting [8]). For the same sequence, the protein stability index with Saccharomyces cerevisiae [1] (setting [9]) worked out at 0.236 ± 0.028; in the data set on Saccharomyces cerevisiae [2], 0.169 ± 0.021.

As to TLDWKFGRGGIG, the protein stability index in the data set on Saccharomyces cerevisiae [1] (setting [3]) stood at 0.315 ± 0.0073; in the data set on Saccharomyces cerevisiae [1] (setting [4]), 0.4083 ± 0.0019; in the data set with Saccharomyces cerevisiae [1] (setting [5]) it was 0.348 ± 0.017; with Saccharomyces cerevisiae [1] (setting [6]), 0.406 ± 0.017; in the data set with Saccharomyces cerevisiae [1] (setting [7]), 0.33 ± 0.0094; in the data set on Saccharomyces cerevisiae [1] (setting [8]), 0.338 ± 0.01. The protein stability index in the data set on Saccharomyces cerevisiae [1] (setting [9]) worked out at 0.4041 ± 0.0037; with Saccharomyces cerevisiae [2], 0.375 ± 0.0046.

In the case of TVLGRDFALSVC, the protein stability index in the data set on Saccharomyces cerevisiae [1] (setting [3]) is 0.455 ± 0.0056; in the data set on Saccharomyces cerevisiae [1] (setting [4]) it was 0.4916 ± 0.004; in the data set with Saccharomyces cerevisiae [1] (setting [5]), 0.361 ± 0.046; with Saccharomyces cerevisiae [1] (setting [6]) it was 0.543 ± 0.015; with Saccharomyces cerevisiae [1] (setting [7]), 0.308 ± 0.0071; in the data set on Saccharomyces cerevisiae [1] (setting [8]), 0.346 ± 0.023. Further, the protein stability index in the data set on Saccharomyces cerevisiae [1] (setting [9]) turned out to be 0.501 ± 0.0061; in the data set on Saccharomyces cerevisiae [2] it was 0.4599 ± 0.00056.

Take TVYMVIRVIVWG: the protein stability index worked out at 0.129 ± 0.023 in the data set with Saccharomyces cerevisiae [1] (setting [3]); 0.126 ± 0.046 with Saccharomyces cerevisiae [1] (setting [4]); 0.141 ± 0.055 in the data set on Saccharomyces cerevisiae [1] (setting [5]); 0.246 ± 0.0077 in the data set on Saccharomyces cerevisiae [1] (setting [6]); 0.0909 ± 0.023 with Saccharomyces cerevisiae [1] (setting [7]); 0.102 ± 0.032 in the data set on Saccharomyces cerevisiae [1] (setting [8]). In addition, the protein stability index was determined as 0.154 ± 0.013 in the data set with Saccharomyces cerevisiae [1] (setting [9]) and 0.207 ± 0.027 with Saccharomyces cerevisiae [2].

For the sequence TYCFRVCAWRAN, the protein stability index turned out to be 0.603 ± 0.049 with Saccharomyces cerevisiae [1] (setting [3]); 0.706 ± 0.021 in the data set on Saccharomyces cerevisiae [1] (setting [4]); 0.583 ± 0.0094 with Saccharomyces cerevisiae [1] (setting [5]); 0.677 ± 0.012 in the data set on Saccharomyces cerevisiae [1] (setting [6]); 0.176 ± 0.0011 with Saccharomyces cerevisiae [1] (setting [7]); 0.208 ± 0.026 with Saccharomyces cerevisiae [1] (setting [8]). Further, the protein stability index in the data set with Saccharomyces cerevisiae [1] (setting [9]) stood at 0.396 ± 0.017; in the data set on Saccharomyces cerevisiae [2] it was 0.341 ± 0.016.

Consider VACLRLTVYVMG, for which the protein stability index came to 0.0455 ± 0.0053 in the data set with Saccharomyces cerevisiae [1] (setting [3]); 0.0789 ± 0.015 with Saccharomyces cerevisiae [1] (setting [4]); 0.128 ± 0.025 in the data set on Saccharomyces cerevisiae [1] (setting [5]); 0.231 ± 0.0037 in the data set on Saccharomyces cerevisiae [1] (setting [6]); 0.101 ± 0.009 with Saccharomyces cerevisiae [1] (setting [7]); 0.124 ± 0.03 in the data set on Saccharomyces cerevisiae [1] (setting [8]). In addition, the protein stability index stood at 0.204 ± 0.016 in the data set with Saccharomyces cerevisiae [1] (setting [9]) and 0.193 ± 0.028 with Saccharomyces cerevisiae [2].

For VASYVCIGVVWV, the protein stability index in the data set with Saccharomyces cerevisiae [1] (setting [3]) amounted to 0.4298 ± 0.0038; with Saccharomyces cerevisiae [1] (setting [4]), 0.492 ± 0.061; with Saccharomyces cerevisiae [1] (setting [5]) it was 0.301 ± 0.023; in the data set with Saccharomyces cerevisiae [1] (setting [6]), 0.497 ± 0.025; in the data set on Saccharomyces cerevisiae [1] (setting [7]), 0.262 ± 0.0045; in the data set on Saccharomyces cerevisiae [1] (setting [8]), 0.299 ± 0.02. Besides, the protein stability index in the data set with Saccharomyces cerevisiae [1] (setting [9]) is 0.456 ± 0.01; in the data set with Saccharomyces cerevisiae [2], 0.351 ± 0.035.

For the sequence VCFLCIWLYSED, the protein stability index amounted to 0.268 ± 0.028 with Saccharomyces cerevisiae [1] (setting [3]); 0.358 ± 0.013 in the data set on Saccharomyces cerevisiae [1] (setting [4]); 0.227 ± 0.041 in the data set with Saccharomyces cerevisiae [1] (setting [5]); 0.4305 ± 0.004 in the data set on Saccharomyces cerevisiae [1] (setting [6]); 0.218 ± 0.017 with Saccharomyces cerevisiae [1] (setting [7]); 0.221 ± 0.033 in the data set with Saccharomyces cerevisiae [1] (setting [8]). The protein stability index was determined as 0.418 ± 0.056 in the data set with Saccharomyces cerevisiae [1] (setting [9]) and 0.344 ± 0.026 in the data set on Saccharomyces cerevisiae [2].

Regarding VCLFFFGYWCCL, the protein stability index in the data set with Saccharomyces cerevisiae [1] (setting [3]) is 0.565 ± 0.066; in the data set with Saccharomyces cerevisiae [1] (setting [4]) it was 0.555 ± 0.026; with Saccharomyces cerevisiae [1] (setting [5]) it was 0.469 ± 0.015; in the data set with Saccharomyces cerevisiae [1] (setting [6]), 0.566 ± 0.0067; in the data set with Saccharomyces cerevisiae [1] (setting [7]), 0.493 ± 0.017; with Saccharomyces cerevisiae [1] (setting [8]) it was 0.479 ± 0.0093. In addition, the protein stability index in the data set with Saccharomyces cerevisiae [1] (setting [9]) was 0.53 ± 0.011; in the data set on Saccharomyces cerevisiae [2], 0.501 ± 0.024.
